Columns and labels:
[1] = biological target: A244 V1/V2 scaffold, engineered, gD-tagged, produced in normal 293 HEK cells (herpes simplex virus 1; HIV-1 isolate A244) (UniProt Q69091); experiment: ELISA; table row A244 V1/V2.eng1*, column 293
ZM233 mutant, Mock = experiment: ELISA of mock- or Endo H-digested scaffold, PG9 titrated, absorbance 490 nm
MN mutant, Mock = experiment: as above
[2] = biological target: 108060 I169K/E172V/T161M/N156I/S164G/D167G V1/V2 scaffold, gD-tagged, produced in normal 293 HEK cells (herpes simplex virus 1; HIV-1 isolate 108060); experiment: ELISA; table row 108060 V1/V2.eng1*, column 293
[3] = biological target: 108060 V1/V2 scaffold, wildtype, gD-tagged, produced in normal 293 HEK cells (herpes simplex virus 1; HIV-1 isolate 108060); experiment: ELISA; table row 108060 V1/V2 wt, column 293
[4] = biological target: JRFL-E168K V1/V2 scaffold, wildtype, gD-tagged, produced in GnTI- 293 HEK cells (herpes simplex virus 1; HIV-1 isolate JRFL) (UniProt Q69091); experiment: ELISA; table row JRFL-E168K V1/V2 wt, GnTI-
[5] = biological target: A244 V1/V2 scaffold, wildtype, gD-tagged, produced in GnTI- 293 HEK cells (herpes simplex virus 1; HIV-1 isolate A244) (UniProt Q69091); experiment: ELISA; table row A244 V1/V2 wt, GnTI-
[6] = biological target: ZM233 V1/V2 scaffold, wildtype, gD-tagged, produced in GnTI- 293 HEK cells (herpes simplex virus 1; HIV-1 isolate ZM233); experiment: ELISA; table row ZM233 V1/V2 wt, GnTI-
[7] = biological target: 108060 I169K/E172V/T161M/N156I/S164P/L165G V1/V2 scaffold, gD-tagged, produced in GnTI- 293 HEK cells (herpes simplex virus 1; HIV-1 isolate 108060); experiment: ELISA; table row 108060 V1/V2.eng2**, GnTI-
[8] = biological target: 1209 V1/V2/V3/C3 scaffold grown in GnTI- cells; experiment: ELISA, mAb titrated on scaffold, absorbance 492 nm; curve 505 (1209 GNTI-)
CAP.45 V1/V2 wt (293) = experiment: ELISA; table row CAP.45 V1/V2 wt, column 293
ZM197 V1/V2 wt (GnTI-) = experiment: ELISA; table row ZM197 V1/V2 wt, GnTI-
[9] = biological target: A244-rgp120 grown in GnTI- cells (HIV-1 isolate A244); experiment: ELISA, mAb titrated on gp120, absorbance 492 nm; curve 495 (A244 gp120 GNTI-)
[10] = biological target: 108060 I169K/E172V V1/V2 scaffold, gD-tagged, produced in GnTI- 293 HEK cells (herpes simplex virus 1; HIV-1 isolate 108060); experiment: ELISA; table row 108060 V1/V2 I169K/E172V, GnTI-
[11] = biological target: ZM233 V1/V2 scaffold, engineered, gD-tagged, produced in normal 293 HEK cells (herpes simplex virus 1; HIV-1 isolate ZM233); experiment: capture ELISA on 34.1 anti-gD; scaffold made in 293F cells
[12] = biological target: ZM233 V1/V2 scaffold, wildtype, gD-tagged, produced in GnTI- 293 HEK cells (herpes simplex virus 1; HIV-1 isolate ZM233); experiment: capture ELISA on 34.1 anti-gD; scaffold in medium of GnTI- cells
[13] = biological target: A244 V1/V2 scaffold, wildtype, gD-tagged, produced in GnTI- 293 HEK cells (herpes simplex virus 1; HIV-1 isolate A244) (UniProt Q69091); experiment: as above
[14] = biological target: 108060 I169K/E172V V1/V2 scaffold, gD-tagged, produced in normal 293 HEK cells (herpes simplex virus 1; HIV-1 isolate 108060); experiment: ELISA; table row 108060 V1/V2 I169K/E172V, column 293
[15] = biological target: A244 V1/V2 scaffold, wildtype, gD-tagged, produced in normal 293 HEK cells (herpes simplex virus 1; HIV-1 isolate A244) (UniProt Q69091); experiment: capture ELISA on 34.1 anti-gD; scaffold made in 293 cells
[16] = biological target: UCSC1207 V1/V2/V3 scaffold (glycosylation site moved from N334 to N332) grown in GnTI- cells (HIV-1 isolate A244 (clade CRF01-AE)); experiment: ELISA, mAb titrated on scaffold, absorbance 492 nm; curve 512 (1207 GNTI-)
[17] = biological target: A244 V1/V2 scaffold, engineered, Strep-tag/6x Histidine-tag, produced in normal 293 cells (HIV-1 isolate A244); experiment: SPR (Biacore 3000), PG9 captured by anti-human Fc, scaffold flowed
[18] = biological target: A244 V1/V2 scaffold, wildtype (unmutated), Strep-tag/6x Histidine-tag, expressed in GnTI- cells (HIV-1 isolate A244); experiment: as above
[19] = biological target: 108060 I169K/E172V/T161M/N156I/S164P/L165G V1/V2 scaffold, gD-tagged, produced in normal 293 HEK (293F) cells (herpes simplex virus 1; HIV-1 isolate 108060); experiment: capture ELISA on 34.1 anti-gD; purified scaffold made in 293F cells
Bal.01 V1/V2 wt (GnTI-) = experiment: ELISA; table row Bal.01 V1/V2 wt, GnTI-
[20] = biological target: ZM233 V1/V2 scaffold, wildtype, gD-tagged, produced in normal 293 HEK cells (herpes simplex virus 1; HIV-1 isolate ZM233); experiment: ELISA; table row ZM233 V1/V2 wt, column 293

Substance: PG9 monoclonal antibody
- EC50 [1]: 0.099 µg/mL
- EC50 (read off the curve) (ZM233 mutant, Mock): 0.03 µg/mL
- EC50 (read off the curve) (MN mutant, Mock): 0.1 µg/mL
- EC50 [2]: 0.093 µg/mL
- EC50 [3]: > 10 µg/mL
- EC50 [4]: > 10 µg/mL
- EC50 [5]: 0.000741 µg/mL
- EC50 [6]: 0.00951 µg/mL
- EC50 [7]: 0.00834 µg/mL
- EC50 [8]: 0.14 µg/mL
- EC50 (CAP.45 V1/V2 wt (293)): 0.312 µg/mL
- EC50 (ZM197 V1/V2 wt (GnTI-)): 0.0303 µg/mL
- EC50 [9]: 0.02 µg/mL
- EC50 [10]: 0.113 µg/mL
- EC50 [11]: 0.002 µg/mL
- EC50 [12]: 0.0095 µg/mL
- EC50 [13]: 0.00074 µg/mL
- EC50 [14]: > 10 µg/mL
- EC50 [15]: 0.893 µg/mL
- EC50 [16]: 0.02 µg/mL
- koff [17]: 0.0019 s⁻¹
- koff [18]: 0.00077 s⁻¹
- EC50 [19]: 0.156 µg/mL
- EC50 (Bal.01 V1/V2 wt (GnTI-)): 0.0802 µg/mL
- EC50 [20]: 0.077 µg/mL
